From patent US20180155451A1 (published 2018)

Experiments:
[1] = target: T1, FcγRIIb (human, UniProt P31994 43-217); test: SPR (Biacore), antibody captured, FcγR as analyte; binding as % of GpH7-A5/GpH7-B3/GpL16-k0
T1 construct: extracellular domain; also called FcgRIIb; 2b; not shown: His tag at the C terminus
T1 sequence (looked up): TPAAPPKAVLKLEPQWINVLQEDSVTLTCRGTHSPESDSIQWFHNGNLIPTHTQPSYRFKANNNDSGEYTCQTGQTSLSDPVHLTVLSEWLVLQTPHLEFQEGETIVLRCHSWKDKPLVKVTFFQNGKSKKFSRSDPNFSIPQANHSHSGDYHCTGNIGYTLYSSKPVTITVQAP

[2] = target: T2, FcγRIa (human, UniProt P12314 16-292); test: as above
T2 construct: extracellular domain; also called FcgRI; 1a; not shown: His tag at the C terminus

[3] = target: T2, FcγRIa; test: SPR (Biacore); He/Con_1a (FcγRIa) divided by He/Con_2b (FcγRIIb)
[4] = target: T3, FcγRIIIa extracellular domain with C-terminal His tag (human, UniProt P08637 17-208); test: SPR (Biacore), antibody captured on antigen peptide chip, FcγR as analyte
T3 construct: extracellular domain; also called FcgRIIIa; 3a; not shown: His tag at the C terminus
Description: (§1) Analysis of interaction between objective antibody and the FcγR was carried out using Biacore T100 (GE Healthcare). HBS-EP+ (GE Healthcare) was used as the running buffer, and the measurement temperature was set to 25° C. Chips produced by immobilizing the antigen peptide by the amine coupling method to a Series S Sencor Chip CM5 (GE Healthcare), or alternatively, chips produced by allowing preliminarily biotinylated antigen peptides to interact with and immobilize onto a Series S Sensor Chip SA (certified) (GE Healthcare) were used. Antibodies of interest were captured onto an antigen peptide-immobilized chip, and allowed to interact to each FcγR diluted with running buffer. To regenerate and repeatedly use the chip, the antibodies captured on the chip were washed off by reacting 10 mM glycine-HCl, pH 1.5.
(§2) The FcγR-binding activity of each antibody was assessed primarily using as an indicator the FcγR-binding activity and dissociation constant for FcγR.

[5] = target: T4, FcγRIIb extracellular domain with C-terminal His tag (human, UniProt P31994 43-217); test: as above
T4 construct: extracellular domain; Soluble receptor expressed in FreeStyle293 cells, used as analyte in Biacore; also called FcgRIIb; 2b; not shown: His tag at the C terminus
T4 sequence (looked up): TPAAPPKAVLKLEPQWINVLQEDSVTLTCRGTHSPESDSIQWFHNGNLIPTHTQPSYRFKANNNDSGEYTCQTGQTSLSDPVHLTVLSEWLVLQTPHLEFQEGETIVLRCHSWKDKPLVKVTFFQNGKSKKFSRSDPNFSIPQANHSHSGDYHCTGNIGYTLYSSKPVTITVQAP
Description: as §1, §2

[6] = target: T3, FcγRIIIa extracellular domain with …; test: SPR; He/Con_3a divided by He/Con_2b (FcγRIIIa over FcγRIIb)
Description: as §1, §2

T2 sequence (P12314 16-292): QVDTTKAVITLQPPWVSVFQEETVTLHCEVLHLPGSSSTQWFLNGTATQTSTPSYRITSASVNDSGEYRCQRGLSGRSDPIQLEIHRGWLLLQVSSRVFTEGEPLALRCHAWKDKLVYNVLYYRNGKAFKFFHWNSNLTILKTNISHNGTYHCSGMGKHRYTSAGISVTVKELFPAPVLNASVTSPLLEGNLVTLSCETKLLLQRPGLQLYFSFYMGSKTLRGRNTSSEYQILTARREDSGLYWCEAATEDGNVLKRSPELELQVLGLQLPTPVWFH
T3 sequence (P08637 17-208): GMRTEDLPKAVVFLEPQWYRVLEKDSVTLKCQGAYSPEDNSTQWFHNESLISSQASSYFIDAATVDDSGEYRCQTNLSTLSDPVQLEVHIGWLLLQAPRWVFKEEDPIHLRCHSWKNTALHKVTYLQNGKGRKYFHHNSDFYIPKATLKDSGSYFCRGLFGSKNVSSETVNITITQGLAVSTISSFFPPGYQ

B1: GpH7-A5/GpH7-B3 variant A327_09D/GpL16-k0 (antibody, human IgG1, kappa)
heavy 1: not shown
heavy 2: not shown
light: DIVMTQSPLSLPVTPGEPASISCQASESLVHSNRNTYLHWYLQKPGQSPQLLIYKVSNRFSGVPDRFSGSGSGTDFTLKISRVEAEDVGVYYCSQNTHVPPTFGQGTKVEIERTVAAPSVFIFPPSDEQLKSGTASVVCLLNNFYPREAKVQWKVDNALQSGNSQESVTEQDSKDSTYSLSSTLTLSKADYEKHKVYACEVTHQGLSSPVTKSFNRGEC
notes: heterodimerized IgG1; alteration in the GpH7-B3 H chain only; also called He Ab
- He/Con_2b [1]: 172 % of control
- He/Con_1a [2]: 103 % of control
- Ia/IIb He_1a/2b [3]: 0.6 ratio

B2: GpH7-A5/GpH7-B3 variant A330_05P/GpL16-k0 (antibody, human IgG1, kappa)
heavy 1: not shown
heavy 2: not shown
light: DIVMTQSPLSLPVTPGEPASISCQASESLVHSNRNTYLHWYLQKPGQSPQLLIYKVSNRFSGVPDRFSGSGSGTDFTLKISRVEAEDVGVYYCSQNTHVPPTFGQGTKVEIERTVAAPSVFIFPPSDEQLKSGTASVVCLLNNFYPREAKVQWKVDNALQSGNSQESVTEQDSKDSTYSLSSTLTLSKADYEKHKVYACEVTHQGLSSPVTKSFNRGEC
notes: as for B1
- He/Con_2b [1]: 137 % of control
- He/Con_1a [2]: 101 % of control
- Ia/IIb He_1a/2b [3]: 0.74 ratio

B3: GpH7-A5/GpH7-B3 variant P331_11K/GpL16-k0 (antibody, human IgG1, kappa)
heavy 1: not shown
heavy 2: not shown
light: DIVMTQSPLSLPVTPGEPASISCQASESLVHSNRNTYLHWYLQKPGQSPQLLIYKVSNRFSGVPDRFSGSGSGTDFTLKISRVEAEDVGVYYCSQNTHVPPTFGQGTKVEIERTVAAPSVFIFPPSDEQLKSGTASVVCLLNNFYPREAKVQWKVDNALQSGNSQESVTEQDSKDSTYSLSSTLTLSKADYEKHKVYACEVTHQGLSSPVTKSFNRGEC
notes: Heterodimerized anti-glypican-3 IgG1; P331K (EU) only in the GpH7-B3 chain; also called He Ab
- He/Con_3a [4]: 67.5 relative binding (GpH7-A5/GpH7-B3/GpL16-k0 = 100)
- He/Con_2b [5]: 84.7 relative binding (GpH7-A5/GpH7-B3/GpL16-k0 = 100)
- He_3a/2b (IIIa/IIb) [6]: 0.8 ratio

B4: GpH7-A5/GpH7-B3 variant A327_10E/GpL16-k0 (antibody, human IgG1, kappa)
heavy 1: not shown
heavy 2: not shown
light: DIVMTQSPLSLPVTPGEPASISCQASESLVHSNRNTYLHWYLQKPGQSPQLLIYKVSNRFSGVPDRFSGSGSGTDFTLKISRVEAEDVGVYYCSQNTHVPPTFGQGTKVEIERTVAAPSVFIFPPSDEQLKSGTASVVCLLNNFYPREAKVQWKVDNALQSGNSQESVTEQDSKDSTYSLSSTLTLSKADYEKHKVYACEVTHQGLSSPVTKSFNRGEC
notes: as for B1
- He/Con_2b [1]: 140 % of control
- He/Con_1a [2]: 103 % of control
- Ia/IIb He_1a/2b [3]: 0.74 ratio

B5: GpH7-A5/GpH7-B3 variant P331_06M/GpL16-k0 (antibody, human IgG1, kappa)
heavy 1: not shown
heavy 2: not shown
light: DIVMTQSPLSLPVTPGEPASISCQASESLVHSNRNTYLHWYLQKPGQSPQLLIYKVSNRFSGVPDRFSGSGSGTDFTLKISRVEAEDVGVYYCSQNTHVPPTFGQGTKVEIERTVAAPSVFIFPPSDEQLKSGTASVVCLLNNFYPREAKVQWKVDNALQSGNSQESVTEQDSKDSTYSLSSTLTLSKADYEKHKVYACEVTHQGLSSPVTKSFNRGEC
notes: Heterodimerized anti-glypican-3 IgG1; P331M (EU) only in the GpH7-B3 chain; also called He Ab
- He/Con_3a [4]: 74.8 relative binding (GpH7-A5/GpH7-B3/GpL16-k0 = 100)
- He/Con_2b [5]: 102 relative binding (GpH7-A5/GpH7-B3/GpL16-k0 = 100)
- He_3a/2b (IIIa/IIb) [6]: 0.74 ratio

B6: GpH7-A5/GpH7-B3 variant L328_15Y/GpL16-k0 (antibody, human IgG1, kappa)
heavy 1: not shown
heavy 2: not shown
light: DIVMTQSPLSLPVTPGEPASISCQASESLVHSNRNTYLHWYLQKPGQSPQLLIYKVSNRFSGVPDRFSGSGSGTDFTLKISRVEAEDVGVYYCSQNTHVPPTFGQGTKVEIERTVAAPSVFIFPPSDEQLKSGTASVVCLLNNFYPREAKVQWKVDNALQSGNSQESVTEQDSKDSTYSLSSTLTLSKADYEKHKVYACEVTHQGLSSPVTKSFNRGEC
notes: Heterodimerized anti-glypican-3 IgG1; L328Y (EU) only in the GpH7-B3 chain; also called He Ab
- He/Con_3a [4]: 68.3 relative binding (GpH7-A5/GpH7-B3/GpL16-k0 = 100)
- He/Con_2b [5]: 193 relative binding (GpH7-A5/GpH7-B3/GpL16-k0 = 100)
- He_3a/2b (IIIa/IIb) [6]: 0.35 ratio

B7: GpH7-A5/GpH7-B3 variant P331_08L/GpL16-k0 (antibody, human IgG1, kappa)
heavy 1: not shown
heavy 2: not shown
light: DIVMTQSPLSLPVTPGEPASISCQASESLVHSNRNTYLHWYLQKPGQSPQLLIYKVSNRFSGVPDRFSGSGSGTDFTLKISRVEAEDVGVYYCSQNTHVPPTFGQGTKVEIERTVAAPSVFIFPPSDEQLKSGTASVVCLLNNFYPREAKVQWKVDNALQSGNSQESVTEQDSKDSTYSLSSTLTLSKADYEKHKVYACEVTHQGLSSPVTKSFNRGEC
notes: Heterodimerized anti-glypican-3 IgG1; P331L (EU) only in the GpH7-B3 chain; also called He Ab
- He/Con_3a [4]: 72.1 relative binding (GpH7-A5/GpH7-B3/GpL16-k0 = 100)
- He/Con_2b [5]: 95.7 relative binding (GpH7-A5/GpH7-B3/GpL16-k0 = 100)
- He_3a/2b (IIIa/IIb) [6]: 0.75 ratio

B8: GpH7-A5/GpH7-B3 variant P331_10E/GpL16-k0 (antibody, human IgG1, kappa)
heavy 1: not shown
heavy 2: not shown
light: DIVMTQSPLSLPVTPGEPASISCQASESLVHSNRNTYLHWYLQKPGQSPQLLIYKVSNRFSGVPDRFSGSGSGTDFTLKISRVEAEDVGVYYCSQNTHVPPTFGQGTKVEIERTVAAPSVFIFPPSDEQLKSGTASVVCLLNNFYPREAKVQWKVDNALQSGNSQESVTEQDSKDSTYSLSSTLTLSKADYEKHKVYACEVTHQGLSSPVTKSFNRGEC
notes: Heterodimerized anti-glypican-3 IgG1; P331E (EU) only in the GpH7-B3 chain; also called He Ab
- He/Con_3a [4]: 75.1 relative binding (GpH7-A5/GpH7-B3/GpL16-k0 = 100)
- He/Con_2b [5]: 116 relative binding (GpH7-A5/GpH7-B3/GpL16-k0 = 100)
- He_3a/2b (IIIa/IIb) [6]: 0.65 ratio
